Results taken from PMC2581593 (The Journal of Biological Chemistry, 2008).

Molecular target: t-SNARE heterodimer (mouse SNAP-25B and rat syntaxin 1A), reconstituted into vesicles (rat | mouse, UniProt P32851;P60879-1)
Assay: co-flotation

Chain of t-SNARE heterodimer (mouse SNAP-25B and rat syntaxin 1A), reconstituted into vesicles (P32851 whole entry, chain 1 of 2): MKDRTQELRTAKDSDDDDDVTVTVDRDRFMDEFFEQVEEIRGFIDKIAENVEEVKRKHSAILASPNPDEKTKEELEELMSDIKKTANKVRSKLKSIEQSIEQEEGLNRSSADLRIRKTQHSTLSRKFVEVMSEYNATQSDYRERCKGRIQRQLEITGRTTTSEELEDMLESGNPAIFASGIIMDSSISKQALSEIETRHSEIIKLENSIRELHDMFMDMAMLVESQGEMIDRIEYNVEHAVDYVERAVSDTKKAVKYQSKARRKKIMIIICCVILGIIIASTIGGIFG
Chain of t-SNARE heterodimer (mouse SNAP-25B and rat syntaxin 1A), reconstituted into vesicles (P60879 whole entry, chain 2 of 2): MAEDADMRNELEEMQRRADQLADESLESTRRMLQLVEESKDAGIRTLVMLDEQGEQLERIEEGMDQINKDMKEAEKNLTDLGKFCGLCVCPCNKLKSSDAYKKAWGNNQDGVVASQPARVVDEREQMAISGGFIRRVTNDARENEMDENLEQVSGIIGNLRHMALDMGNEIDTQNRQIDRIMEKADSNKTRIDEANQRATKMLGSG

B1: syt 1 C2AB T328A (domain or fragment)
chain: KGGKNAINMKDVKDLGKTMKDQALKDDDAETGLTDGEEKEEPKEEEKLGKLQYSLDYDFQNNQLLVGIIQAAELPALDMGGTSDPYVKVFLLPDKKKKFETKVHRKTLNPVFNEQFTFKVPYSELGGKTLVMAVYDFDRFSKHDIIGEFKVPMNTVDFGHVTEEWRDLQSAEKEEQEKLGDICFSLRYVPTAGKLTVVILEAKNLKKMDVGGLSDPYVKIHLMQNGKRLKKKKATIKKNTLNPYYNESFSFEVPFEQIQKVQVVVTVLDYDKIGKNDAIGKVFVGYNSTGAELRHWSDMLANPRRPIAQWHTLQVEEEVDAMLAVKK
binding result: binds

B2: syt 1 C2AB E341A (domain or fragment)
chain: KGGKNAINMKDVKDLGKTMKDQALKDDDAETGLTDGEEKEEPKEEEKLGKLQYSLDYDFQNNQLLVGIIQAAELPALDMGGTSDPYVKVFLLPDKKKKFETKVHRKTLNPVFNEQFTFKVPYSELGGKTLVMAVYDFDRFSKHDIIGEFKVPMNTVDFGHVTEEWRDLQSAEKEEQEKLGDICFSLRYVPTAGKLTVVILEAKNLKKMDVGGLSDPYVKIHLMQNGKRLKKKKTTIKKNTLNPYYNASFSFEVPFEQIQKVQVVVTVLDYDKIGKNDAIGKVFVGYNSTGAELRHWSDMLANPRRPIAQWHTLQVEEEVDAMLAVKK
binding result: binds

B3: syt 1 C2AB K313R/K325R/K327R (domain or fragment)
chain: KGGKNAINMKDVKDLGKTMKDQALKDDDAETGLTDGEEKEEPKEEEKLGKLQYSLDYDFQNNQLLVGIIQAAELPALDMGGTSDPYVKVFLLPDKKKKFETKVHRKTLNPVFNEQFTFKVPYSELGGKTLVMAVYDFDRFSKHDIIGEFKVPMNTVDFGHVTEEWRDLQSAEKEEQEKLGDICFSLRYVPTAGKLTVVILEAKNLKKMDVGGLSDPYVRIHLMQNGKRLKRKRTTIKKNTLNPYYNESFSFEVPFEQIQKVQVVVTVLDYDKIGKNDAIGKVFVGYNSTGAELRHWSDMLANPRRPIAQWHTLQVEEEVDAMLAVKK
binding result: binds
